Reference: patent publication US20250129166A1 (Five Prime, published 2025)

Target: T1, full length human PSGL-1 (SEQ ID NO: 3) expressed on heparan sulfate-mutant CHO cells (human, UniProt Q14242 42-412)
T1 construct: also called CHO-PSGL-1 cells
T1 sequence: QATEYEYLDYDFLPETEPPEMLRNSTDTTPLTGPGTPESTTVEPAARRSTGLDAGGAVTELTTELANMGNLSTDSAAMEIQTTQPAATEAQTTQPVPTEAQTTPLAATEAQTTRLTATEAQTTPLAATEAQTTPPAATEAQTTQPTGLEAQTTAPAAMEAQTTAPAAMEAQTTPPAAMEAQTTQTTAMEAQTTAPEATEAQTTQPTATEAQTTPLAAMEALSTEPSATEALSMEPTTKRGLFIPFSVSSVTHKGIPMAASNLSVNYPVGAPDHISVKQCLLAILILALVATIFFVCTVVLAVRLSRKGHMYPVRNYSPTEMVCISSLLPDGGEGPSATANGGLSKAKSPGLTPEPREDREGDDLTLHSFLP
Test: VISTA-Fc binding to CHO-PSGL-1 cells at pH 6.0

- binding result: binds
B1: H2R mutant (Fc fusion)
chain: FKVATPYSLYVCPEGQNVTLTCRLLGPVDKGHDVTFYKTWYRSSRGEVQTCSERRPIRNLTFQDLHLHHGGHQAANTSHDLAQRHGLESASDHHGNFSITMRNLTLLDSGLYCCLVVEIRRRRSEHRVHGAMELQVQTGKDAPSNCVVYPSSSQDSENITAA
notes: Produced by transient transfection of Expi293 cells; not shown: human IgG1 Fc part and any linker or tag of the VISTA-Fc construct
